Laboratory results from patent US20120009123A1, “Albumin binding peptide-mediated disease targeting” (ABRAXIS BIOSCIENCE, LLC, priority 2008, published 2012).
In brackets after ≈: the same amount, converted by molar mass.

Key:
[1] = test system: squamous cervix (A431) line; test: cells; settings: Homo sapiens, A-431, read-out: IC50, in vitro cytotoxicity
[2] = target: human serum albumin (HSA) (Homo sapiens, UniProt P02768); test: peptide phage display library screening (panning); assay type: binding; settings: for assessment of sequence after fourth round of panning: about 100 plaques sequenced, FIG. 11
Method: A commercial peptide phage display library (12-mer peptides in M13) was screened for peptides which bind to human serum albumin (HSA) (see FIG. 10). Four rounds of panning were completed as follows:
1. The phage library was screened by coating a 100 ug/ml HSA solution onto the wells of 12-well plate and exposing the wells to 1-2×1011 pfu phage. Bound phage were eluted with a 0.2M Glycine, pH2.2 buffer to yield 15×10^5 pfu/ml (which became 5×1013 pfu/ml after amplification);
2. The second panning was eluted with a 0.2M Glycine, pH 2.2 buffer to yield 12×10^6 pfu/ml (8×1013 pfu/ml after amplification);
3. The third panning was eluted with 250 ug/ml HSA for 1 hr to yield 5×10^5 pfu/ml (2×1012 pfu/ml after amplification); and
4. a fourth panning was eluted with a 0.2M Glycine, pH2.2 buffer to yield 14×10^8 pfu/ml. After the fourth round of panning, about 100 plaques were selected, amplified and sequenced.

[3] = target: binding of albumin to SPARC (Homo sapiens, UniProt P02768); test: competitive binding assays with SPARC C-terminal cysteine-poor domain peptides; settings: general statement in the description
Method: The 15 mer SPARC C-terminal, cysteine-poor domain-spanning peptides were used in competitive binding assays. Specifically, the SPARC peptides were immobilized onto PVDF-attached 96 well plate in an overnight incubation at 4° C. (5 μg/well). The next day the plate was washed with DPBS and blocked for an hour with 5% Non-fat dry milk in DPBS. Next, 100 μl of DPBS was added to each well except the wells in first row. A vial of Alexa 488-BSA (5 mg) was dissolved with 1.2 ml of 25% HSA. Then, 100 μl of BSA-HSA was mixed with 100 μl of SPARC peptides prepared as 4 mg/ml in DPBS (resulting in a final concentration of the Alexa 488-BSA and peptides in first row of about 200 ug/well each). Serial dilution was made down to each column. The plate was incubated for an hour in a dark place, was washed, and the fluorescence was read. […] To further localize the SPARC albumin binding site SPARC sub-fragments were made (FIG. 8). In particular, peptides #103 ([…]) (SEQ ID NO: 66) and #104 ([…]) are subfragments of the sole active peptide, peptide #47.

[4] = test system: human serum albumin spiked with Alexa fluor 488 conjugated bovine serum albumin; test: SPARC-albumin interaction: SPARC immobilized on PVDF, fluorescent albumin binding; settings: for albumin binding: polypeptide immobilized 5 μg/well on PVDF, FIG. 2
Method: Full length, wild-type SPARC (“WT”), a SPARC deletion mutant in which the glutamine at residue 3 is deleted (“Q3”) or SPARC treated with Cathepsin K were immobilized on PVDF membrane and exposed to decreasing concentrations of human serum albumin spiked with Alexa fluor 488 conjugated bovine serum albumin.
In the initial experiment, full length, wild-type SPARC and “Q3” mutant SPARC polypeptides were immobilized onto PVDF-attached 96 well plate by overnight at 4° C. incubation (5 μg/well). The next day the plate was washed with DPBS and blocked for an hour with 5% non-fat dry milk in DPBS. 100 μl of DPBS was added to each well. A vial of Alexa 488-BSA (5 mg) was dissolved with 1.2 ml of 25% Human Serum Albumin (“HSA”) and 100 μl of BSA-HSA mix was added to wells of first row of plate (resulting in a final concentration of Alexa 488-BSA in first row becomes about 200 μg/well). Serial dilutions were made down each column and the plate was incubated for an hour in a dark place. After 1 hr incubation, the membrane was washed with PBS and the amount of albumin remained quantified by fluorescent plate reader.
Thirty μg of recombinant human (“rh”) SPARC was incubated with 0.4 μg of Cathepsin K for 10, 30, 60 and 120 minutes. […] Accordingly, overlapping 15 mer peptides were prepared which spanned the SPARC C-terminal, cysteine-poor domain (FIG. 6).

human serum albumin = target: T1, human serum albumin (human, UniProt P02768 25-609); test: M13 12-mer phage display, four rounds of panning on coated HSA, sequencing of about 100 plaques
T1 construct: also called HSA; human albumin

albumin binding to SPARC = target: T2, albumin binding to SPARC (Homo sapiens, UniProt P09486); test: follow-up competitive studies of albumin binding to SPARC
T2 construct: Full length, wild-type SPARC (“WT”)
T2 sequence (P09486 18-303): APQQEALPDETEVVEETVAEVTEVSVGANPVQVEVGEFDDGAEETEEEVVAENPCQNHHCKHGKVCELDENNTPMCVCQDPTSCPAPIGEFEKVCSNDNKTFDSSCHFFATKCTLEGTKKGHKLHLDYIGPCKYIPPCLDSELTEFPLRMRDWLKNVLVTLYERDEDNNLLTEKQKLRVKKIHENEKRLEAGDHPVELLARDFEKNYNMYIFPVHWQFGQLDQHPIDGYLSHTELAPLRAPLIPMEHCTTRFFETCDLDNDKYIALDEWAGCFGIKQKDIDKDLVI

## CC(=O)O[C@H]1C(=O)[C@@]2(C)[C@H]([C@H](OC(=O)c3ccccc3)[C@]3(O)C[C@H](OC(=O)[C@H](O)[C@@H](NC(=O)c4ccccc4)c4ccccc4)C(C)=C1C3(C)C)[C@]1(OC(C)=O)CO[C@@H]1C[C@@H]2O [TAX]
[1]
  IC50: 0.012 µg/mL (≈ 0.0141 µM)

## KNHGATRTTRAS [SEQ ID NO: 2, called Peptide 47 in b190]
[2]
  assessment of sequence after fourth round of panning: probably be a true ligand
[2]; general statement in the description
  binding to human albumin: binds human albumin with great avidity

## MYIFPVHWQFGQLDQ [peptide #47, 15 mer, amino acids 209-223 of the human SPARC protein]
[3]
  binding to human albumin: binds human albumin with great avidity

## WPHHHHTRLSTV
[2]
  assessment of sequence after fourth round of panning: nonspecific binding

B1: Q3: SPARC deletion mutant in which the glutamine at residue 3 is deleted (protein)
chain: APQEALPDETEVVEETVAEVTEVSVGANPVQVEVGEFDDGAEETEEEVVAENPCQNHHCKHGKVCELDENNTPMCVCQDPTSCPAPIGEFEKVCSNDNKTFDSSCHFFATKCTLEGTKKGHKLHLDYIGPCKYIPPCLDSELTEFPLRMRDWLKNVLVTLYERDEDNNLLTEKQKLRVKKIHENEKRLEAGDHPVELLARDFEKNYNMYIFPVHWQFGQLDQHPIDGYLSHTELAPLRAPLIPMEHCTTRFFETCDLDNDKYIALDEWAGCFGIKQKDIDKDLVI
[4]
  albumin binding: bind albumin

B2: KNHGATRTTRAS (Peptide 47; SEQ ID NO: 2) (peptide)
peptide: KNHGATRTTRAS
Human serum albumin
  binding result: binds

B3: SPARC: Secreted Protein, Acidic, Rich in Cysteines; full length, wild-type, 303 amino acid glycoprotein (protein)
chain: APQQEALPDETEVVEETVAEVTEVSVGANPVQVEVGEFDDGAEETEEEVVAENPCQNHHCKHGKVCELDENNTPMCVCQDPTSCPAPIGEFEKVCSNDNKTFDSSCHFFATKCTLEGTKKGHKLHLDYIGPCKYIPPCLDSELTEFPLRMRDWLKNVLVTLYERDEDNNLLTEKQKLRVKKIHENEKRLEAGDHPVELLARDFEKNYNMYIFPVHWQFGQLDQHPIDGYLSHTELAPLRAPLIPMEHCTTRFFETCDLDNDKYIALDEWAGCFGIKQKDIDKDLVI
[4]; cathepsin K digest 60 min, FIG. 5
  albumin binding after cathepsin K digest: obliterated
[4]
  albumin binding: bind albumin
Albumin binding to SPARC
  IC50 of albumin binding to SPARC: 5%
